In US20090137003A1:

How the values were obtained:
[1] = target: RSV protein F of strain Long (RSV Long (ATCC number VR-26)) (UniProt P12568); assay: cell-based or functional assay
[2] = target: RSV protein F of strain B Wash/18537 (RSV B Wash/18537 (ATCC number VR-1580)) (UniProt P13843); assay: cell-based or functional assay
[3] = target: RSV protein F of strain B1 (RSV B1 (ATCC number VR-1400)) (UniProt O36634); assay: cell-based or functional assay
[4] = target: RSV protein G (recombinant G protein) (respiratory syncytial virus (RSV), strain not stated); assay: SPR (Biacore), Fab on recombinant antigen

RSV protein F of strain B1 (RSV B1 (ATCC number VR-1400)), sequence (O36634 26-574 limits assumed): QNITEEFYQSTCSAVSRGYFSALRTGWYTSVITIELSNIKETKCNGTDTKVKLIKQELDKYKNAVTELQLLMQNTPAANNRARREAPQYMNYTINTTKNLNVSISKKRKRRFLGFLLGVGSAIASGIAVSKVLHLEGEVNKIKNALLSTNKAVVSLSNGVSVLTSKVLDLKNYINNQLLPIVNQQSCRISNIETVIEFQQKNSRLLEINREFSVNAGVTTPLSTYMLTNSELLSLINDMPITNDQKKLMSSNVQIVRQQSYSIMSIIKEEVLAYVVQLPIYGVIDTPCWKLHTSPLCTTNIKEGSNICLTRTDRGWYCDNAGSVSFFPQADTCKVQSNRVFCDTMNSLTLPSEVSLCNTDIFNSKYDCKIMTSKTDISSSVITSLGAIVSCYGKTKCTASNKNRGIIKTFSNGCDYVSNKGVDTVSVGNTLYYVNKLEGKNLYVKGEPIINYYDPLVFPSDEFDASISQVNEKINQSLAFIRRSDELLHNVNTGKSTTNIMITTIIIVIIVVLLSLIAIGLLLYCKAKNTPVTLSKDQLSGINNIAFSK
RSV protein F of strain B Wash/18537 (RSV B Wash/18537 (ATCC number VR-1580)), sequence (P13843 26-574): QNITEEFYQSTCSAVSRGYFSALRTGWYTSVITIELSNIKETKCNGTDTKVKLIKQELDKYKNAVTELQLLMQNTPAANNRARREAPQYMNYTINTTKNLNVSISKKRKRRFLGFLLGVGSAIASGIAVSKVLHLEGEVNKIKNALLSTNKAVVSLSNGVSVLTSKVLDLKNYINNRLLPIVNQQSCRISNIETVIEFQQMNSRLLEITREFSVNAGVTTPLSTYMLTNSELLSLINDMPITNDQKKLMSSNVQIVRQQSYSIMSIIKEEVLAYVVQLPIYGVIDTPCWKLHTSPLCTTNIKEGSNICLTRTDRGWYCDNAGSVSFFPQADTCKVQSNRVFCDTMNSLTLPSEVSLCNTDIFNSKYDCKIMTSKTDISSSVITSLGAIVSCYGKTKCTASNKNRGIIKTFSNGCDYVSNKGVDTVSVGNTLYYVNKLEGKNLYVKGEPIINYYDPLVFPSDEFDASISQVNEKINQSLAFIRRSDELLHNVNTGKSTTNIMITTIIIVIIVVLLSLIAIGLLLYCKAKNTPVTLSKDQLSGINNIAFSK
RSV protein F of strain Long (RSV Long (ATCC number VR-26)), sequence (P12568 26-574): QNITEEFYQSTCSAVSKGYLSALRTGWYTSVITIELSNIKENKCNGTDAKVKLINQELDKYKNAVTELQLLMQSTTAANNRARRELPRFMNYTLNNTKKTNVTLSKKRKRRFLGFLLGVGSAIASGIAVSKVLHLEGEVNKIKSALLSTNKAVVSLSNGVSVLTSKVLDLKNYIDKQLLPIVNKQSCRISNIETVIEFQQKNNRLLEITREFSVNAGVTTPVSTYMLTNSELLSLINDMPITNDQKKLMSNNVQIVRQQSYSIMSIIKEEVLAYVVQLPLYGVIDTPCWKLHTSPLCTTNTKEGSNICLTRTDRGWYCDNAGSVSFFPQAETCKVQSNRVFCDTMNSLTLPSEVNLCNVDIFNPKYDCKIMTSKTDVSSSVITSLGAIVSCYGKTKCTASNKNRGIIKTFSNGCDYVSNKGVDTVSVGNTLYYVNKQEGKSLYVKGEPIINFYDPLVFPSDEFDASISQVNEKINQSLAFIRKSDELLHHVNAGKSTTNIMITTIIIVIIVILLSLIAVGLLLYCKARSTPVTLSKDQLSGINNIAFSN

Binder	PRNT EC50 with complement, RSV Long [1] [µg/mL]	PRNT EC50 with complement, RSV 18537 [2] [µg/mL]	PRNT EC50 with complement, RSV B1 [3] [µg/mL]	Kd [4] [nM]	koff [4] [s⁻¹]	kon [4] [M⁻¹ s⁻¹]	t1/2 [4] [min]
antibody clone 831 (antibody, human IgG1, kappa, V domains shown) VH: QVQLVQSGAEVKKPGASVKVSCKASANIFTYAMHWVRQAPGQRLEWMGWINVGNGQTKYSQRFQGRVTITRDTSATTAYMELSTLRSEDTAVYYCARRASQYGEVYGNYFDYWGQGTLVTVSS VL: DIQMTQSPSTLSASVGDRLTITCRASQNIYNWLAWYQQKPGKAPKLLIYDASTLESGVPSRFSGSGSGTEFTLTISSLQPDDFATYYCQQYNSLSPTFGQGTKVEIKR	0.08	0.72	1.66	–	–	–	–
antibody clone 827 (antibody, human IgG1, kappa, V domains shown) VH: QVQLVQSGAEVKKPGASVKVSCRVSGHTFTALSKHWMRQGPGGGLEWMGFFDPEDGDTGYAQKFQGRVTMTEDTATGTAYMELSSLTSDDTAVYYCATVAAAGNFDNWGQGTLVTVSS VL: DIQMTQSPSSLAASVGDRVTITCRASQFISSYLHWYQQRPGKAPKLLMYAASTLQSGVPSRFSGSGSGTDFTLTISSLQPEDFATYYCQQSYTNPYTFGQGTKLEIKR	0.16	0.1	–	–	–	–	–
antibody clone 800 (antibody, human IgG1, kappa, V domains shown) VH: QVQLVESGGAVVQPGRSLRLSCEVSGFSFSDYGMNWVRQGPGKGLEWVAVIWHDGSNKNYLDSVKGRFTVSRDNSKNTLFLQMNSLRAEDTAVYYCARTPYEFWSGYYFDFWGQGTLVTVSS VL: AIQLTQSPSSLSASVGDRVTLTCRASQGITDSLAWYQQKPGKAPKVLLYAASRLESGVPSRFSGRGSGTDFTLTISSLQPEDFATYYCQQYSKSPATFGPGTKVEIRR	0.15	–	0.16	–	–	–	–
Fab fragment of antibody clone 816 (Fab) VH: EVQLLESGGGLVQPGGSLRLSCVASGFTFSTYAMTWVRQAPGKGLEWVSVIRASGDSEIYADSVRGRFTISRDNSKNTVFLQMDSLRVEDTAVYFCANIGQRRYCSGDHCYGHFDYWGQGTLVTVSS light: DIVMTQSPLSLPVTPGEPASISCRSSQSLLHSDGRYYVDWYLQKPGQSPHLLIYLASNRASGVPDRFTGSGSGTDFTLKISRVEAEDVGVYYCMQGLHTPWTFGQGTKVDIKRTVAAPSVFIFPPSDEQLKSGTASVVCLLNNFYPREAKVQWKVDNALQSGNSQESVTEQDSKDSTYSLSSTLTLSKADYEKHKVYACEVTHQGLSSPVTKSFNRGEC	–	–	–	0.09	0.000178	2.02e+06	65
antibody clone 894 (antibody, human IgG1, kappa, V domains shown) VH: QVQLVESGGGVVQPGKSLRLSCAASGFRFSDYGMHWVRQAPSKGLEWVAVIWHDGSNIRYADSVRGRFSISRDNSKNTLYLQMNSMRADDTAFYYCARVPFQIWSGLYFDHWGQGTLVTVSS VL: EIVMTQSPATLSVSPGERATLSCRASQSVGNNLAWYQQRPGQAPRLLIYGASTRATGIPARFSGSGSGTEFTLTISSLQSEDFAVYYCQQYDKWPETFGQGTKVDIKR	0.08	0.07	–	–	–	–	–
Fab fragment of antibody clone 853 (Fab) VH: EVQLVQSGAEVKKPGQSLKISCKTSGYIFTNYWIGWVRQRPGKGLEWMGVIFPADSDARYSPSFQGQVTISADKSIGTAYLQWSSLKASDTAIYYCARPKYYFDSSGQFSEMYYFDFWGQGTLVTVSS light: EIVLTQSPGTLSLSPGERATLSCRASQSVSSNYLAWYQQKPGQAPRLLIYGASSRAAGMPDRFSGSGSGTDFTLTISRLEPEDFAVYYCQQYGNSPLTFGGGTEVEIKRTVAAPSVFIFPPSDEQLKSGTASVVCLLNNFYPREAKVQWKVDNALQSGNSQESVTEQDSKDSTYSLSSTLTLSKADYEKHKVYACEVTHQGLSSPVTKSFNRGEC	–	–	–	0.79	0.0014	1.77e+06	8.25
Fab fragment of antibody clone 796 (Fab) VH: QVQLVESGGGVVQPGRSLRLSCAASGFSFSHFGMHWVRQVPGKGLEWVAIISYDGNNVHYADSVKGRFTISRDNSKNTLFLQMNSLRDDDTGVYYCAKDDVATDLAAYYYFDVWGRGTLVTVSS light: DIVMTQTPLSLSVTPGQPASISCRSSQSLLRSDGKTFLYWYLQKPGQSPQPLMYEVSSRFSGVPDRFSGSGSGADFTLNISRVETEDVGIYYCMQGLKIRRTFGPGTKVEIKRTVAAPSVFIFPPSDEQLKSGTASVVCLLNNFYPREAKVQWKVDNALQSGNSQESVTEQDSKDSTYSLSSTLTLSKADYEKHKVYACEVTHQGLSSPVTKSFNRGEC	–	–	–	0.48	0.000403	833000	28.7
Fab fragment of antibody clone 859 (Fab) VH: QVQLVESGGGVVQPGRSLRLSCAVSGSSFSKYGIHWVRQAPGKGLEWVAVISYDGSKKYFTDSVKGRFTIARDNSQNTVFLQMNSLRAEDTAVYYCATGGGVNVTSWSDVEHSSSLGYWGLGTLVTVSS light: DIQMTQSPSSLSASVGDRVTITCRASQGIRNYLAWYQQKPGKVPKLLVFAASTLQSGVPSRFSGSGSGTDFTLTISSLQPEDVATYYCQRYNSAPLTFGGGTKVEIKRTVAAPSVFIFPPSDEQLKSGTASVVCLLNNFYPREAKVQWKVDNALQSGNSQESVTEQDSKDSTYSLSSTLTLSKADYEKHKVYACEVTHQGLSSPVTKSFNRGEC	–	–	–	0.12	4.63e-05	380000	250
antibody clone 818 (antibody, human IgG1, kappa, V domains shown) VH: QVTLRESGPAVVKPTETLTLTCAFSGFSLNAGRVGVSWIRQPPGQAPEWLARIDWDDDKAFRTSLKTRLSISKDSSKNQVVLTLSNMDPADTATYYCARTQVFASGGYYLYYLDHWGQGTLVTVSS VL: DIQMTQSPSSLSASVGDRVTITCRASQTIASYVNWYQQKPGRAPSLLIYAASNLQSGVPPRFSGSGSGTDFTLTISGLQPDDFATYYCQQSYSYRALTFGGGTKVEIKR	0.15	0.21	–	–	–	–	–
antibody clone 880 (antibody, human IgG1, kappa, V domains shown) VH: QITLKESGPTLVRPTQTLTLTCTFSGFSLSTSKLGVGWIRQPPGKALEWLALVDWDDDRRYRPSLKSRLTVTKDTSKNQVVLTMTNMDPVDTATYYCAHSAYYTSSGYYLQYFHHWGPGTLVTVSS VL: DIQMTQSPSSLAASVGDRVTITCRASQTIASYVNWYQQKPGKAPNLLIYAASSLQSGVPSRFSGSGSGTDFTLTISSLQPEDFASYFCQQSYSFPYTFGQGTKLDIKR	0.38	0.95	0.4	–	–	–	–
